Measurements taken from patent US20190322748A1.

Assays:
[1] = target: huFc fused dimeric human Tim3-ECD (human) (UniProt Q8TDQ0); test: SPR BIAcore B4000, Ab captured on anti-mouse IgG, 25 C, dimeric antigen (avidity)
[2] = target: monomeric cyno Tim3-ECD (cynomolgus); test: ELISA on cynomolgus Tim3 (values in relation to the samples max value)
[3] = target: full-length human Tim3 on cells (CHO-K1 stably transfected with plasmid 15312_hTIM3-fl_pUC_Neo) (human) (UniProt Q8TDQ0); test: cellular ELISA on CHO-TIM3
[4] = target: Tim3-ECD-His-Biotin (human) (UniProt Q8TDQ0); test: ELISA on human Tim3 (values in relation to the samples max value)
[5] = target: full-length human Tim3 on cells (CHO-K1 stably transfected with plasmid 15312_hTIM3-fl_pUC_Neo) (human) (UniProt Q8TDQ0); test: cell-based or functional assay
[6] = target: Tim3-ECD-His-Biotin (human) (UniProt Q8TDQ0); test: ELISA on human Tim3
[7] = target: full-length human Tim3 on cells (CHO-K1 stably transfected with plasmid 15312_hTIM3-fl_pUC_Neo) (human) (UniProt Q8TDQ0); test: cellular ELISA on CHO-TIM3 (values in relation to the samples max value)
[8] = target: monomeric cyno Tim3-ECD (cynomolgus); test: SPR BIAcore B4000, Ab captured on anti-mouse IgG, 25 C
[9] = target: monomeric human Tim3-ECD (human) (UniProt Q8TDQ0); test: as above
[10] = target: monomeric cyno Tim3-ECD (cynomolgus); test: ELISA on cynomolgus Tim3

Kd [1]: 7.5 nM | EC50 [2]: 0.423 µg/mL | Inflexion point [3]: 224 ng/mL | EC50 [4]: 0.0732 µg/mL | IFN-gamma release in MLR at 1 µg/ml antibody, % of rec hu IL-2 (20 EU/ml) = 100% [5]: 7% | IFN-gamma release in MLR at 10 µg/ml antibody, % of rec hu IL-2 (20 EU/ml) = 100% [5]: 26% | IFN-gamma release in MLR at 40 µg/ml antibody, % of rec hu IL-2 (20 EU/ml) = 100% [5]: 36% | Inflexion point [6]: 88.3 ng/mL | EC50 [7]: 0.15 µg/mL | Kd [8]: 168 nM | Kd [9]: 13.6 nM | Inflexion point [10]: 210000 ng/mL
Substance: Reference antibody Biolegend F38-2E2
